Positions count from the first letter of the chain named. Each block holds one binder with its values, some of them ahead of it.
Columns and labels:
Assay in all cases: cell-based or functional assay
[1] = target: T1, human plasma-derived FIXa (Haematologic Technologies Inc) (human, UniProt P00740 47-191; P00740 227-461)
[2] = target: T1, human plasma-derived FIXa (Haematologic …); remark: listed apart in the source
[3] = target: T1, human plasma-derived FIXa (Haematologic …); remark: listed apart in the source

T1 sequence (P00740 47-191, chain 1 of 2): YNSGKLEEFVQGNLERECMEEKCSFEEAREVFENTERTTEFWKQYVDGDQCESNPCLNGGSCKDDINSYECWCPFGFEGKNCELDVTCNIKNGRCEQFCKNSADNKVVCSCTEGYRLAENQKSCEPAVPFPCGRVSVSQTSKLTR
T1 sequence (P00740 227-461, chain 2 of 2): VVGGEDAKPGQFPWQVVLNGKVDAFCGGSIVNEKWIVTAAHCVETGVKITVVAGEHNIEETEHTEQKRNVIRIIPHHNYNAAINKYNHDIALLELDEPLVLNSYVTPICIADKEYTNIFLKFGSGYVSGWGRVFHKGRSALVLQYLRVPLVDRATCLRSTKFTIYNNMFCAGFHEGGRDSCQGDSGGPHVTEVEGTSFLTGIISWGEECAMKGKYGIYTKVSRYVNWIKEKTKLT

FXa generation rate at 3.2 nM mAb [1]: 43 pM/min
FXa generation rate at 6.3 nM mAb [1]: 65 pM/min
FXa generation rate at 12.5 nM mAb [1]: 97 pM/min
FXa generation rate at 25 nM mAb [1]: 131 pM/min
FXa generation rate at 50 nM mAb [1]: 173 pM/min
FXa generation rate at 100 nM mAb [1]: 198 pM/min
FXa generation rate at 200 nM mAb [1]: 208 pM/min
Peak stimulatory activity relative to 224F3 [2]: 10.4 fold relative to 224F3
B1: mAb1-4071 (antibody, V domains shown)
VH: EVQLVQSGAEVKKPGESLRISCKGSGYSFTPYWIGWVRQMPGKGLEWMGMIDPSDSYTDYGPSFRGHVTISADKSISTAYLQWSSLKASDTAMYYCARVRIREGAFDIWGQGTMVTVSS
VL: DIVMTQSPLSLPVTPGEPASISCRSSQRLLHSTGYNYLNWYLQKPGQSPQLLIYLGSRRASGVPDRFSGSGSGTDFTLKISRVEAEDVGVYYCMQALHIPYTFGQGTKLEIK

FXa generation rate at 3.2 nM mAb [1]: 383 pM/min
FXa generation rate at 6.3 nM mAb [1]: 550 pM/min
FXa generation rate at 12.5 nM mAb [1]: 752 pM/min
FXa generation rate at 25 nM mAb [1]: 851 pM/min
FXa generation rate at 50 nM mAb [1]: 989 pM/min
FXa generation rate at 100 nM mAb [1]: 1000 pM/min
FXa generation rate at 200 nM mAb [1]: 960 pM/min
Peak stimulatory activity relative to 224F3 [2]: 50.1 fold relative to 224F3
B2: mAb1-4624 (antibody, V domains shown)
VH: B1 VH with S28R, P31S, S54T, R102M, E103S
VL: B1 VL with R28S, G34W, R58N, A96V

FXa generation rate at 3.2 nM mAb [1]: 662 pM/min
FXa generation rate at 6.3 nM mAb [1]: 714 pM/min
FXa generation rate at 12.5 nM mAb [1]: 697 pM/min
FXa generation rate at 25 nM mAb [1]: 685 pM/min
FXa generation rate at 50 nM mAb [1]: 629 pM/min
FXa generation rate at 100 nM mAb [1]: 581 pM/min
FXa generation rate at 200 nM mAb [1]: 586 pM/min
Peak stimulatory activity relative to 224F3 [2]: 35.9 fold relative to 224F3
B3: mAb1-4707 (antibody, V domains shown)
VH: EVQLVESGGGLVQPGRSLRLSCAASGFTFGDYAMHWVRQAPGKGLEWVSGISWVSGSIGYARSVKGRFTISRDNAKNSLYLQMNSLRAEDTALYYCAKGQYDEDAGMDVWGQGTTVTVSS
VL: DIQMTQSPSSLSASVGDRVTITCRASQSIRSYLNWYQQKPGKAPKLLIYAASSLQSGVPSRFSGSGSGTDFTLTISSLQPEDFATYYCQQGYPTWTFGGGTKVEIK

FXa generation rate at 3.2 nM mAb [1]: 370 pM/min
FXa generation rate at 6.3 nM mAb [1]: 390 pM/min
FXa generation rate at 12.5 nM mAb [1]: 381 pM/min
FXa generation rate at 25 nM mAb [1]: 373 pM/min
FXa generation rate at 50 nM mAb [1]: 369 pM/min
FXa generation rate at 100 nM mAb [1]: 375 pM/min
FXa generation rate at 200 nM mAb [1]: 401 pM/min
Peak stimulatory activity relative to 224F3 [2]: 20 fold relative to 224F3
B4: mAb1-4763 (antibody, V domains shown)
VH: B3 VH with V54N, R62K
VL: B3 VL with S28W, R30S, Q55P

FXa generation rate at 3.2 nM mAb [1]: 302 pM/min
FXa generation rate at 6.3 nM mAb [1]: 491 pM/min
FXa generation rate at 12.5 nM mAb [1]: 685 pM/min
FXa generation rate at 25 nM mAb [1]: 1000 pM/min
FXa generation rate at 50 nM mAb [1]: 1190 pM/min
FXa generation rate at 100 nM mAb [1]: 1260 pM/min
FXa generation rate at 200 nM mAb [1]: 1300 pM/min
Peak stimulatory activity relative to 224F3 [2]: 66.5 fold relative to 224F3
B5: mAb1-4857 (antibody, V domains shown)
VH: EVQLVESGGGLVQPGRSLKLSCAASGFTFDDYAMHWVRQVPGKGLEWVSGISWRGDIIGYVDSVKGRFTISRDNAKNSLYLQLNSLRAEDTALYYCVKSYGSGSFYNAFDSWGQGTLVTVSS
VL: DIQMTQSPSTLSASAGDRVTITCRASQSISSWLAWYQQKPGKAPKFLIYKASRLERGVPSRFSGSGSGTEFSLTISSLQPDDFATYYCLEYSSYIRTFGQGTKVEIK

Maximum stimulation (fold), at 533 nM BiAb [3]: 5200 fold
B6: mAb4-5925 (bispecific, mAb1-4857/mAb1-6723) (bispecific antibody, V domains shown)
VH 1: B5 VH
VL 1: B5 VL
VH 2: EVQLVQSGAEVKKPGESLRISCKGSGYSFTTSWIVWVRQMPGKGLEWMGMIDPSDSFTSYSPSFQGHVTISADKSISTAYLQWSSLKASDTAMYYCARLHYYHSEEFDVWGQGTLVTVSS
VL 2: EIVLTQSPGTLSLSPGERATLSCRASQSVSSSYLAWYQQKPGQAPRLLIYGASSRARGIPDRFSGSGSGTDFTLTISRLEPEDFAVYYCQQFGSSRLFTFGQGTKLEIK

FXa generation rate at 3.2 nM mAb [1]: 434 pM/min
FXa generation rate at 6.3 nM mAb [1]: 415 pM/min
FXa generation rate at 12.5 nM mAb [1]: 385 pM/min
FXa generation rate at 25 nM mAb [1]: 382 pM/min
FXa generation rate at 50 nM mAb [1]: 352 pM/min
FXa generation rate at 100 nM mAb [1]: 364 pM/min
FXa generation rate at 200 nM mAb [1]: 411 pM/min
Peak stimulatory activity relative to 224F3 [2]: 21.7 fold relative to 224F3
B7: mAb1-4861 (antibody, V domains shown)
VH: B5 VH with R54N, I57N
VL: B5 VL
